PMC10976854
“And” between values parts separate entries of the source, which are not always exact repeats. Equal values may be shown once. One block for each binder: values may come before it.

Tests used:
[1] = target: collagenase-cleaved xZP2-N2N3 (Xenopus); assay: native MS
[2] = target: collagenase-cleaved xZP2-N2N3 (Xenopus); assay: SEC-MALS
[3] = target: Xenopus egg exudate-cleaved xZP2-N2N3 (Xenopus); assay: native MS
[4] = target: Xenopus egg exudate-cleaved xZP2-N2N3 (Xenopus); assay: SEC-MALS

stoichiometry N [1]: 4
stoichiometry N [2]: 4
B1: collagenase-cleaved xZP2-N2N3 (domain or fragment)
chain 1: DEPGSSVVTCTKDSMTVRIPRTLSGFDDEIP
chain 2: VAAPSFWDLEVKFTGQTSLLGMSEARQRGYQFSSDPYYLTVQASYSAFGLNVFNLENQRLYVADLRLVSQFGSPRISIDTPMICARDSPSCNSTHATVLIPFFGGVLTGINVNSVNIQLSSYSLQQHGITLDSRNGYRLYIKRSTLKGDRNDVLVLTFIYYGKTVPMLISLVCSGGSN
modifications: not checked

stoichiometry N [3]: 2 and 4
stoichiometry N [4]: 4 and 2
B2: Xenopus egg exudate-cleaved xZP2-N2N3 (domain or fragment)
chain 1: B1 chain 1
chain 2: B1 chain 2
modifications: not checked
